Experimental findings from paper PMC10104521 (Proceedings of the National Academy of Sciences of the …, 2023) are described below.

In data set [1] the target is T1, farnesylated GBP1 (guanylate-binding protein 1) (human, UniProt P32455 1-592, C-terminal farnesyl moiety).
T1 sequence: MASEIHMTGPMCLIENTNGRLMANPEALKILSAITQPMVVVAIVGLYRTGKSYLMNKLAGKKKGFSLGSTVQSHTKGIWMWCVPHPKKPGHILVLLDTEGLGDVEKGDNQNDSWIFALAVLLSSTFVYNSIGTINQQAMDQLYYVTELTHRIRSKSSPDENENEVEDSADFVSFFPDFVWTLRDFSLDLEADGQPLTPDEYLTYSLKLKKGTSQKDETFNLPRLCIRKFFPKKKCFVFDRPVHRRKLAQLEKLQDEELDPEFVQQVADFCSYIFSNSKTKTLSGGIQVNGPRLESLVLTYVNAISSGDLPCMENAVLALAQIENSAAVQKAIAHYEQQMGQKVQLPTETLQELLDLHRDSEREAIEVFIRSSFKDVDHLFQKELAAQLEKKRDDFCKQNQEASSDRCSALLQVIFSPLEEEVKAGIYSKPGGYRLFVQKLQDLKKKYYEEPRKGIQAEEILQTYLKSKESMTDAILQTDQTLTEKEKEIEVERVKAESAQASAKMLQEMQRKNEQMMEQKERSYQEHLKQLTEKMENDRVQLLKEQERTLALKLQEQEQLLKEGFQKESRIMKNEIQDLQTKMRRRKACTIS
The data set can be described thus: UV-absorbance-based light scattering.

The data set “dynamic light scattering” deals with the molecule itself. The data set is described as follows: dynamic light scattering.
The target of data set [2] is T2, geranylgeranylated GBP5 (guanylate-binding protein 5) (human), Q96PP8.
T2 chain: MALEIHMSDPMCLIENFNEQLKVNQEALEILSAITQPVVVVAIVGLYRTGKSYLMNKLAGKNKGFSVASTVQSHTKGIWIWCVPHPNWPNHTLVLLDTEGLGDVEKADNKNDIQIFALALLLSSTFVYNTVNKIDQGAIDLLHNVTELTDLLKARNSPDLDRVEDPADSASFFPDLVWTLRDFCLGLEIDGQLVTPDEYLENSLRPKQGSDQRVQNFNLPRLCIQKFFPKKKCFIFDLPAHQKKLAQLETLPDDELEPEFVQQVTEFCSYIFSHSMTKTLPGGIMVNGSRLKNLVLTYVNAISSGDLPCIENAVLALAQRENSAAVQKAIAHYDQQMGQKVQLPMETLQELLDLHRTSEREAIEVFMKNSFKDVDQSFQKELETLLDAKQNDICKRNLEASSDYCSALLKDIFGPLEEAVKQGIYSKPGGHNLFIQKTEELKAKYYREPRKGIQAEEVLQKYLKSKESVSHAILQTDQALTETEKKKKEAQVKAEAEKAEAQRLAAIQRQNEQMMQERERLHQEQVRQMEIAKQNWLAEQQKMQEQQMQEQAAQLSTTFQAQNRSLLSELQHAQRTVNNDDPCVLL
The data set can be described thus: dynamic light scattering. As to conditions: remark: other sources report otherwise.

Data set [3] deals with T3, nongeranylgeranylated GBP5 (human), Q96PP8.
T3 chain: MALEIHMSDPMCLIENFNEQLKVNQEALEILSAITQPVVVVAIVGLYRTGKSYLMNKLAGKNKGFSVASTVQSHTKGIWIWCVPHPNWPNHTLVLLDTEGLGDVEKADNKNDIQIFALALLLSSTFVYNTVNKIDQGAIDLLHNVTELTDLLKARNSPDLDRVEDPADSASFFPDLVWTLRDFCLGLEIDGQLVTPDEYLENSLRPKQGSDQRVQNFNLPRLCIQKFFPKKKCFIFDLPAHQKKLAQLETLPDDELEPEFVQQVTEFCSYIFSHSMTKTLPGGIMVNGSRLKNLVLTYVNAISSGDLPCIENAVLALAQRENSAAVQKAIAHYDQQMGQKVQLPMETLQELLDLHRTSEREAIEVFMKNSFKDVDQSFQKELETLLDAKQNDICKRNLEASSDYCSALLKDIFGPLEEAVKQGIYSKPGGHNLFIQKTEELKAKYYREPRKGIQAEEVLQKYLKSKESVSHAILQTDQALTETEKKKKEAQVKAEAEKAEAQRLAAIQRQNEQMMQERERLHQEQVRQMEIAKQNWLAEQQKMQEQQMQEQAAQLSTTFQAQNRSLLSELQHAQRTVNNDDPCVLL
The data set is described as follows: dynamic light scattering. The conditions noted are these: remark: other sources report otherwise.

The target in data set [4] is T4, nonfarnesylated GBP1 (human), P32455.
T4 chain: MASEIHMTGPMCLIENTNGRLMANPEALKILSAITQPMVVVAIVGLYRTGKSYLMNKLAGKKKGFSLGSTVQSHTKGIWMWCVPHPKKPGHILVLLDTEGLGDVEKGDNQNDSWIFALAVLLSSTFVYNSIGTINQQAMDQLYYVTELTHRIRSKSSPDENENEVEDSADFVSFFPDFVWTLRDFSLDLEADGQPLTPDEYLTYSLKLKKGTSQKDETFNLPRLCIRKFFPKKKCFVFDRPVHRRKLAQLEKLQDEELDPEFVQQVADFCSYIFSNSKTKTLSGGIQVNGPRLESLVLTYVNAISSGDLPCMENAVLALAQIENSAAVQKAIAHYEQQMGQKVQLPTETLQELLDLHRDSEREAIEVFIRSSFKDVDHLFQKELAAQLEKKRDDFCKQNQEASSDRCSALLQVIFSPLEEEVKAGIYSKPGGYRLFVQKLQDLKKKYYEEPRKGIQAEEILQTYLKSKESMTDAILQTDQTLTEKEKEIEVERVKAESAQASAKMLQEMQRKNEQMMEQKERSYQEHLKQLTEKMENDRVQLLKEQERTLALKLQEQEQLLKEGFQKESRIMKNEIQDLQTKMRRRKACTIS
The data set is described as follows: dynamic light scattering. As to conditions: remark: other sources report otherwise.

B1: geranylgeranylated GBP2 (guanylate-binding protein 2) (natural protein, human, UniProt P32456 1-591, looked up)
chain: MAPEINLPGPMSLIDNTKGQLVVNPEALKILSAITQPVVVVAIVGLYRTGKSYLMNKLAGKKNGFSLGSTVKSHTKGIWMWCVPHPKKPEHTLVLLDTEGLGDIEKGDNENDSWIFALAILLSSTFVYNSMGTINQQAMDQLHYVTELTDRIKANSSPGNNSVDDSADFVSFFPAFVWTLRDFTLELEVDGEPITADDYLELSLKLRKGTDKKSKSFNDPRLCIRKFFPKRKCFVFDWPAPKKYLAHLEQLKEEELNPDFIEQVAEFCSYILSHSNVKTLSGGIPVNGPRLESLVLTYVNAISSGDLPCMENAVLALAQIENSAAVEKAIAHYEQQMGQKVQLPTETLQELLDLHRDSEREAIEVFMKNSFKDVDQMFQRKLGAQLEARRDDFCKQNSKASSDCCMALLQDIFGPLEEDVKQGTFSKPGGYRLFTQKLQELKNKYYQVPRKGIQAKEVLKKYLESKEDVADALLQTDQSLSEKEKAIEVERIKAESAEAAKKMLEEIQKKNEEMMEQKEKSYQEHVKQLTEKMERDRAQLMAEQEKTLALKLQEQERLLKEGFENESKRLQKDIWDIQMRSKSLEPICNIL
modifications: C-terminal geranylgeranyl moiety
For the molecule B1, the binding result (in data set [1]; in “dynamic light scattering”) was “binds” in each case.

B2: nongeranylgeranylated GBP2 (natural protein, human, UniProt P32456 1-591, looked up)
chain: MAPEINLPGPMSLIDNTKGQLVVNPEALKILSAITQPVVVVAIVGLYRTGKSYLMNKLAGKKNGFSLGSTVKSHTKGIWMWCVPHPKKPEHTLVLLDTEGLGDIEKGDNENDSWIFALAILLSSTFVYNSMGTINQQAMDQLHYVTELTDRIKANSSPGNNSVDDSADFVSFFPAFVWTLRDFTLELEVDGEPITADDYLELSLKLRKGTDKKSKSFNDPRLCIRKFFPKRKCFVFDWPAPKKYLAHLEQLKEEELNPDFIEQVAEFCSYILSHSNVKTLSGGIPVNGPRLESLVLTYVNAISSGDLPCMENAVLALAQIENSAAVEKAIAHYEQQMGQKVQLPTETLQELLDLHRDSEREAIEVFMKNSFKDVDQMFQRKLGAQLEARRDDFCKQNSKASSDCCMALLQDIFGPLEEDVKQGTFSKPGGYRLFTQKLQELKNKYYQVPRKGIQAKEVLKKYLESKEDVADALLQTDQSLSEKEKAIEVERIKAESAEAAKKMLEEIQKKNEEMMEQKEKSYQEHVKQLTEKMERDRAQLMAEQEKTLALKLQEQERLLKEGFENESKRLQKDIWDIQMRSKSLEPICNIL
For orientation: stoichiometry N means the number of molecules, sites or subunits per partner or assembly. On to B2, for which, in the data set “dynamic light scattering”, the “stoichiometry N” value worked out at 2.

B3: geranylgeranylated GBP5 (guanylate-binding protein 5), Q96PP8 1-586 (natural protein)
chain: MALEIHMSDPMCLIENFNEQLKVNQEALEILSAITQPVVVVAIVGLYRTGKSYLMNKLAGKNKGFSVASTVQSHTKGIWIWCVPHPNWPNHTLVLLDTEGLGDVEKADNKNDIQIFALALLLSSTFVYNTVNKIDQGAIDLLHNVTELTDLLKARNSPDLDRVEDPADSASFFPDLVWTLRDFCLGLEIDGQLVTPDEYLENSLRPKQGSDQRVQNFNLPRLCIQKFFPKKKCFIFDLPAHQKKLAQLETLPDDELEPEFVQQVTEFCSYIFSHSMTKTLPGGIMVNGSRLKNLVLTYVNAISSGDLPCIENAVLALAQRENSAAVQKAIAHYDQQMGQKVQLPMETLQELLDLHRTSEREAIEVFMKNSFKDVDQSFQKELETLLDAKQNDICKRNLEASSDYCSALLKDIFGPLEEAVKQGIYSKPGGHNLFIQKTEELKAKYYREPRKGIQAEEVLQKYLKSKESVSHAILQTDQALTETEKKKKEAQVKAEAEKAEAQRLAAIQRQNEQMMQERERLHQEQVRQMEIAKQNWLAEQQKMQEQQMQEQAAQLSTTFQAQNRSLLSELQHAQRTVNNDDPCVLL
modifications: here or on the partner: C-terminal geranylgeranyl moiety; C-terminal geranylgeranyl moiety
Molecule B3 gave a stoichiometry N in data set [2] of 2.

B4: geranylgeranylated GBP5 (guanylate-binding protein 5) (natural protein, human, UniProt Q96PP8 1-586, looked up)
chain: MALEIHMSDPMCLIENFNEQLKVNQEALEILSAITQPVVVVAIVGLYRTGKSYLMNKLAGKNKGFSVASTVQSHTKGIWIWCVPHPNWPNHTLVLLDTEGLGDVEKADNKNDIQIFALALLLSSTFVYNTVNKIDQGAIDLLHNVTELTDLLKARNSPDLDRVEDPADSASFFPDLVWTLRDFCLGLEIDGQLVTPDEYLENSLRPKQGSDQRVQNFNLPRLCIQKFFPKKKCFIFDLPAHQKKLAQLETLPDDELEPEFVQQVTEFCSYIFSHSMTKTLPGGIMVNGSRLKNLVLTYVNAISSGDLPCIENAVLALAQRENSAAVQKAIAHYDQQMGQKVQLPMETLQELLDLHRTSEREAIEVFMKNSFKDVDQSFQKELETLLDAKQNDICKRNLEASSDYCSALLKDIFGPLEEAVKQGIYSKPGGHNLFIQKTEELKAKYYREPRKGIQAEEVLQKYLKSKESVSHAILQTDQALTETEKKKKEAQVKAEAEKAEAQRLAAIQRQNEQMMQERERLHQEQVRQMEIAKQNWLAEQQKMQEQQMQEQAAQLSTTFQAQNRSLLSELQHAQRTVNNDDPCVLL
modifications: C-terminal geranylgeranyl moiety
B4: in data set [1], the binding result is recorded as “binds”.

B5: nongeranylgeranylated GBP5, Q96PP8 1-586 (natural protein)
chain: MALEIHMSDPMCLIENFNEQLKVNQEALEILSAITQPVVVVAIVGLYRTGKSYLMNKLAGKNKGFSVASTVQSHTKGIWIWCVPHPNWPNHTLVLLDTEGLGDVEKADNKNDIQIFALALLLSSTFVYNTVNKIDQGAIDLLHNVTELTDLLKARNSPDLDRVEDPADSASFFPDLVWTLRDFCLGLEIDGQLVTPDEYLENSLRPKQGSDQRVQNFNLPRLCIQKFFPKKKCFIFDLPAHQKKLAQLETLPDDELEPEFVQQVTEFCSYIFSHSMTKTLPGGIMVNGSRLKNLVLTYVNAISSGDLPCIENAVLALAQRENSAAVQKAIAHYDQQMGQKVQLPMETLQELLDLHRTSEREAIEVFMKNSFKDVDQSFQKELETLLDAKQNDICKRNLEASSDYCSALLKDIFGPLEEAVKQGIYSKPGGHNLFIQKTEELKAKYYREPRKGIQAEEVLQKYLKSKESVSHAILQTDQALTETEKKKKEAQVKAEAEKAEAQRLAAIQRQNEQMMQERERLHQEQVRQMEIAKQNWLAEQQKMQEQQMQEQAAQLSTTFQAQNRSLLSELQHAQRTVNNDDPCVLL
Consider B5, for which the stoichiometry N in data set [3] stood at 2.

B6: nonfarnesylated GBP1, P32455 1-592 (natural protein)
chain: MASEIHMTGPMCLIENTNGRLMANPEALKILSAITQPMVVVAIVGLYRTGKSYLMNKLAGKKKGFSLGSTVQSHTKGIWMWCVPHPKKPGHILVLLDTEGLGDVEKGDNQNDSWIFALAVLLSSTFVYNSIGTINQQAMDQLYYVTELTHRIRSKSSPDENENEVEDSADFVSFFPDFVWTLRDFSLDLEADGQPLTPDEYLTYSLKLKKGTSQKDETFNLPRLCIRKFFPKKKCFVFDRPVHRRKLAQLEKLQDEELDPEFVQQVADFCSYIFSNSKTKTLSGGIQVNGPRLESLVLTYVNAISSGDLPCMENAVLALAQIENSAAVQKAIAHYEQQMGQKVQLPTETLQELLDLHRDSEREAIEVFIRSSFKDVDHLFQKELAAQLEKKRDDFCKQNQEASSDRCSALLQVIFSPLEEEVKAGIYSKPGGYRLFVQKLQDLKKKYYEEPRKGIQAEEILQTYLKSKESMTDAILQTDQTLTEKEKEIEVERVKAESAQASAKMLQEMQRKNEQMMEQKERSYQEHLKQLTEKMENDRVQLLKEQERTLALKLQEQEQLLKEGFQKESRIMKNEIQDLQTKMRRRKACTIS
Consider B6, for which the stoichiometry N in data set [4] amounted to 2.
